Source: US20200262877A1, “ION CHANNEL-BINDING PEPTIDES AND METHODS OF USE THEREOF” (priority 2017, published 2020)

How the values were obtained:
[1] = target: T1, 5HT3a (Homo sapiens, UniProt P46098); experiment: Ion channel panel (IonWorks Barracuda): 5HT3a; format: cell-based
T1 construct: host or cells: HEK293 or CHO
T1 sequence (P46098 whole entry, looked up): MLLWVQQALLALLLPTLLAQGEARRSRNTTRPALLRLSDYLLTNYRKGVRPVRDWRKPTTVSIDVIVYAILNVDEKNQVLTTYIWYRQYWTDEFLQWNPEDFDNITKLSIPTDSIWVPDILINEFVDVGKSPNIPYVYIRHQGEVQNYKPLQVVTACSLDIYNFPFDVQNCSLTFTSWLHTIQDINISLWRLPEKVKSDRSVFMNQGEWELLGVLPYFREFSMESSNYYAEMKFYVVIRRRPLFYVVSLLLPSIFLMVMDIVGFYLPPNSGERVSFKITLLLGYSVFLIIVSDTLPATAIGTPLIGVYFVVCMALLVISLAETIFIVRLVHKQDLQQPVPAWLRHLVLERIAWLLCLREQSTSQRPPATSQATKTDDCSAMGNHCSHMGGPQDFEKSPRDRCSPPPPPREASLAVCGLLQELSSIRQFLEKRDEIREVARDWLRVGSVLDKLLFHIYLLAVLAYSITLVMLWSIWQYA
Method in brief: (§1)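 Peptides were tested in duplicate at final 20 μM and 200 nM, with concentration set by amino acid analysis, in HEPES-buffered saline. They were applied for at least 5 min to HEK293 or CHO cells transfected with each channel. Currents were expressed as % inhibition, 1-(Ipeptide/Icontrol)×100, or % activation, Ipeptide/Icontrol×100, against a channel-matched reference compound.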

[2] = target: T2, α3β4 (Homo sapiens, UniProt P30926+P32297); experiment: Ion channel panel (IonWorks Barracuda): α3β4; format: cell-based; conditions: 100% = no change, <100% = inhibition
T2 construct: host or cells: HEK293 or CHO
Method in brief: as §1

[3] = target: T3, α4β2 (Homo sapiens, UniProt P17787+P43681); experiment: Ion channel panel (IonWorks Barracuda): α4β2; format: cell-based; conditions: 100% = no change, <100% = inhibition
T3 construct: host or cells: HEK293 or CHO
Method in brief: as §1

[4] = target: T4, Cav2.1 (Homo sapiens, UniProt O00555); experiment: cell-based; conditions: 100% = no change, <100% = inhibition
T4 construct: host or cells: HEK293 or CHO
Method in brief: as §1

[5] = target: T5, Cav2.2 (Homo sapiens, UniProt Q00975); experiment: cell-based; conditions: 100% = no change, <100% = inhibition
T5 construct: host or cells: HEK293 or CHO
Method in brief: as §1

[6] = target: T6, Kv2.1 (Homo sapiens, UniProt Q14721); experiment: cell-based; conditions: 100% = no change, <100% = inhibition
T6 construct: host or cells: HEK293 or CHO
Method in brief: as §1

[7] = tested on: GABA; experiment: Ion channel panel (IonWorks Barracuda): GABA; format: cell-based; conditions: 100% = no change, <100% = inhibition
Method in brief: as §1

[8] = target: Nav1.5 (Homo sapiens, UniProt Q14524); experiment: in vitro; conditions: 100% = no change; for Activity of Nav1.5 with peptide, expressed as a percentage of the reference compound: peptide at 0.2 μM; for Activity of Nav1.5 with peptide (percentage of the reference compound): peptide at 20 μM
Method in brief: as §1

[9] = target: hERG (Homo sapiens, UniProt Q12809); experiment: in vitro; conditions: 100% = no change, <100% = inhibition
Method in brief: as §1

[10] = target: T7, Kir2.1 (Homo sapiens, UniProt P63252); experiment: Ion channel panel (IonWorks Barracuda): Kir2.1; format: cell-based; conditions: 100% = no change, <100% = inhibition
T7 construct: host or cells: HEK293 or CHO
Method in brief: as §1

[11] = target: T8, Kv1.1 (Homo sapiens, UniProt Q09470); experiment: cell-based; format: cell-based; conditions: 100% = no change, <100% = inhibition
T8 construct: host or cells: HEK293 or CHO
Method in brief: as §1

[12] = target: T9, Kv1.2 (Homo sapiens, UniProt P16389); experiment: cell-based; format: cell-based; conditions: 100% = no change, <100% = inhibition
T9 construct: host or cells: HEK293 or CHO
Method in brief: as §1

[13] = target: T10, Kv1.3 (Homo sapiens, UniProt P22001); experiment: cell-based; format: cell-based; conditions: 100% = no change, <100% = inhibition
T10 construct: host or cells: HEK293 or CHO
Method in brief: as §1

[14] = target: T11, Nav1.7 (Homo sapiens, UniProt Q15858); experiment: cell-based; format: cell-based; conditions: 100% = no change; for Activity of Nav1.7 with peptide, expressed as a percentage of the reference compound: peptide at 0.2 μM; for Activity of Nav1.7 with peptide (percentage of the reference compound): peptide at 20 μM
T11 construct: host or cells: HEK293 or CHO

[15] = target: T12, NR2A (Homo sapiens, UniProt Q12879); experiment: Ion channel panel (IonWorks Barracuda): NR2A; format: cell-based; conditions: 100% = no change, <100% = inhibition
T12 construct: host or cells: HEK293 or CHO
Method in brief: as §1

[16] = target: T13, NR2B (Homo sapiens, UniProt Q13224); experiment: Ion channel panel (IonWorks Barracuda): NR2B; format: cell-based; conditions: 100% = no change, <100% = inhibition
T13 construct: host or cells: HEK293 or CHO
Method in brief: as §1

[17] = target: T14, TRPA1 (Homo sapiens, UniProt O75762); experiment: Ion channel panel (IonWorks Barracuda): TRPA1; format: cell-based; conditions: 100% = no change, <100% = inhibition
T14 construct: host or cells: HEK293 or CHO
Method in brief: as §1

[18] = target: T15, TRPV1 (Homo sapiens, UniProt Q8NER1); experiment: Ion channel panel (IonWorks Barracuda): TRPV1; format: cell-based; conditions: 100% = no change, <100% = inhibition
T15 construct: host or cells: HEK293 or CHO
Method in brief: as §1

[19] = first of two Nav1.5 columns (probably TP1)
[20] = second of two Nav1.5 columns (probably TP2)
[21] = first of two Nav1.7 columns (probably TP1)
[22] = second of two Nav1.7 columns (probably TP2)

Sequence of Nav1.5 (Q14524 whole entry): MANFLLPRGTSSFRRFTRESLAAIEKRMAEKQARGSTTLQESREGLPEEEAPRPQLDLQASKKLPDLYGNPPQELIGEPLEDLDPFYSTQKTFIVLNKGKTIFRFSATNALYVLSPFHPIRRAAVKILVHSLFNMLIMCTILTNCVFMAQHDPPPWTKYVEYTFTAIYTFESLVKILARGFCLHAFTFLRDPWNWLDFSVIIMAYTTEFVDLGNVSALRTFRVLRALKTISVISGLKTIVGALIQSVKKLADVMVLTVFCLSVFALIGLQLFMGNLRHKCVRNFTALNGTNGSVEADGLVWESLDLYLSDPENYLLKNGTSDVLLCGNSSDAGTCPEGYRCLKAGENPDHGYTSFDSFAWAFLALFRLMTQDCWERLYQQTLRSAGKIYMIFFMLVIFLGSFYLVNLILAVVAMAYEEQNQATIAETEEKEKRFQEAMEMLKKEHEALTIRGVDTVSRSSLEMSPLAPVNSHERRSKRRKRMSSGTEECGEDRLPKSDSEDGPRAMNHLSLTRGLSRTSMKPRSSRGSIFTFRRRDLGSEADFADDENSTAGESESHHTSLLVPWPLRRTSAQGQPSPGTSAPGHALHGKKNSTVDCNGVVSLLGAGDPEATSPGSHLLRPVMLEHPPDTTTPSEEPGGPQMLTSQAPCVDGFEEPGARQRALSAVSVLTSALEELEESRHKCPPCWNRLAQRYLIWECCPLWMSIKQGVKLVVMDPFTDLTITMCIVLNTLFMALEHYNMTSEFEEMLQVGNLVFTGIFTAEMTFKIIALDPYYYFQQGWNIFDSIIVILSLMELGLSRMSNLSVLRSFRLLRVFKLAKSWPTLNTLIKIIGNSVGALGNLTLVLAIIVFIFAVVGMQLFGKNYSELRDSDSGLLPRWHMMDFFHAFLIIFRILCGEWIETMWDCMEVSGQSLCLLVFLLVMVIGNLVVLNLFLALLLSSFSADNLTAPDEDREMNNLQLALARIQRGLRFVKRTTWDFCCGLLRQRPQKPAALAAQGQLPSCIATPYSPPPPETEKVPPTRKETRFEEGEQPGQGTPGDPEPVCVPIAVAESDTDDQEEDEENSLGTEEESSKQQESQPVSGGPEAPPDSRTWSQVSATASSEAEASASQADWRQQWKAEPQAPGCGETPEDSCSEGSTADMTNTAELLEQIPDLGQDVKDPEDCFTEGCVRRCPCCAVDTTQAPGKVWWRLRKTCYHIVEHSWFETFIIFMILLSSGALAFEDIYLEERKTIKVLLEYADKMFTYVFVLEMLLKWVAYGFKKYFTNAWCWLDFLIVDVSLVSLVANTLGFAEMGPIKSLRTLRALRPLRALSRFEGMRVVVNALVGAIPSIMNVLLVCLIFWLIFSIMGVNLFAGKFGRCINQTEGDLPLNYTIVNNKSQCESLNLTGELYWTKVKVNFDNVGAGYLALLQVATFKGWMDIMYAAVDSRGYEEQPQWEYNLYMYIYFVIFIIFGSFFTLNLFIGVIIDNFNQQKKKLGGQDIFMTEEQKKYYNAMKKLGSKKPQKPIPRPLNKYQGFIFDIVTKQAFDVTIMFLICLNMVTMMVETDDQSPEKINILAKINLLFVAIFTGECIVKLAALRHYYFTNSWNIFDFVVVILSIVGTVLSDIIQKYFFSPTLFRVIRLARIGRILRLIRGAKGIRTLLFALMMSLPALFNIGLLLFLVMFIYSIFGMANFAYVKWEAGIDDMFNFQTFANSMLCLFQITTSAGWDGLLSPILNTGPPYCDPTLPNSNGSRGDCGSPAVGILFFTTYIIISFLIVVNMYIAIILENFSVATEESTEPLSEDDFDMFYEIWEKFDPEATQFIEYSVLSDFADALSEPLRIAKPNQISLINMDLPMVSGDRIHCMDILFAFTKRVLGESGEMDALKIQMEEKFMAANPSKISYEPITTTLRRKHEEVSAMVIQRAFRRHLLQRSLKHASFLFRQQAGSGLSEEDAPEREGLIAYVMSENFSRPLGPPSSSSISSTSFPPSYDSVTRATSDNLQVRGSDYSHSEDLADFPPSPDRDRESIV
T11 sequence (Q15858 whole entry): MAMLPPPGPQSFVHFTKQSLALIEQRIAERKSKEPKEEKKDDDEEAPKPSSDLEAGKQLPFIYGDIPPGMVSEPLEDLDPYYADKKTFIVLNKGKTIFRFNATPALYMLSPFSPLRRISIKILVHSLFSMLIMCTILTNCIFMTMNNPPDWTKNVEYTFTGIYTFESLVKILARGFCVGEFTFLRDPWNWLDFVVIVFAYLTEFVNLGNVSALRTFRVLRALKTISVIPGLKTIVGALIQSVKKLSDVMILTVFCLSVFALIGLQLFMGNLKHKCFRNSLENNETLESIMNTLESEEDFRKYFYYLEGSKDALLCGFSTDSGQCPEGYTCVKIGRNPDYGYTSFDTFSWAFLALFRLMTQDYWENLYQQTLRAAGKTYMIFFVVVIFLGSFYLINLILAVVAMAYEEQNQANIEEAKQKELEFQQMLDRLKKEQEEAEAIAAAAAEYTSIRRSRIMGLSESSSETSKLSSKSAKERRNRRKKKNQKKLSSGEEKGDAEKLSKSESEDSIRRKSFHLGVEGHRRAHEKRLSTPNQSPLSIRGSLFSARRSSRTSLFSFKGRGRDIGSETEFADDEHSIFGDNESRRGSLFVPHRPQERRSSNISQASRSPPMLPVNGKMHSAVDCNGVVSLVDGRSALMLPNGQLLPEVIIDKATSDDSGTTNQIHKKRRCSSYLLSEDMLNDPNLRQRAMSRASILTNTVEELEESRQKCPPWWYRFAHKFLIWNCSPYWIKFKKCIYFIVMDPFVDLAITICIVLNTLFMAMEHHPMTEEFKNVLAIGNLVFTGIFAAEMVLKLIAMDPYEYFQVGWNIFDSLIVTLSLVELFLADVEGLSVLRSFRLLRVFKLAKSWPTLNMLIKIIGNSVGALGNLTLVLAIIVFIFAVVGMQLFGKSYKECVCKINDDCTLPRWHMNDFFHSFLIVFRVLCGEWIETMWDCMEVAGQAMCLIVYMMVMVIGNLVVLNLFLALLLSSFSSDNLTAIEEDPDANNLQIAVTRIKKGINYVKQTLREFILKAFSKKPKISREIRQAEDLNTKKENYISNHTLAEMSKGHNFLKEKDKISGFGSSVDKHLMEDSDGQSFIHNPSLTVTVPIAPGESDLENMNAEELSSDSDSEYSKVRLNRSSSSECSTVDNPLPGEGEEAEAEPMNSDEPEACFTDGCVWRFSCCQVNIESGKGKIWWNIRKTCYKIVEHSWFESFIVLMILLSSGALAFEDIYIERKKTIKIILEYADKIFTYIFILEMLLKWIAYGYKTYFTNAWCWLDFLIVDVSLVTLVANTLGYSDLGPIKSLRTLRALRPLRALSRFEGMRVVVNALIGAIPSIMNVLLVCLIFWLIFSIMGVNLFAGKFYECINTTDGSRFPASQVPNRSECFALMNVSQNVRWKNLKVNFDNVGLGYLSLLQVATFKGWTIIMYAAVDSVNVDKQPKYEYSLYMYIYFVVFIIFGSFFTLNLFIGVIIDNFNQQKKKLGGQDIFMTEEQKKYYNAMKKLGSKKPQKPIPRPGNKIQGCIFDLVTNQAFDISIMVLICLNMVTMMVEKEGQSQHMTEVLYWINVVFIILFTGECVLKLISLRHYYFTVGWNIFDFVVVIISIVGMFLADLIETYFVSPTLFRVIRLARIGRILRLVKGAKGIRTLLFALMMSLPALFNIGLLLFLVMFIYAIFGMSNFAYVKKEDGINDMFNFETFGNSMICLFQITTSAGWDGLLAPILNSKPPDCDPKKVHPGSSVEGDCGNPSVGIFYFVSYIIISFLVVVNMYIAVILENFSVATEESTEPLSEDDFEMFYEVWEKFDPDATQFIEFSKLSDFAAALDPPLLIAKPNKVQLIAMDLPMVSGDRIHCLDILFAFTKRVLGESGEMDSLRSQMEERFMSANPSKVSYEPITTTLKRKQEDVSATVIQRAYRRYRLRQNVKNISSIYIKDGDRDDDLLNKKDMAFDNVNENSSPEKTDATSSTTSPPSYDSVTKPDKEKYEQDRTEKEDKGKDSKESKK
Sequence of hERG (Q12809 whole entry): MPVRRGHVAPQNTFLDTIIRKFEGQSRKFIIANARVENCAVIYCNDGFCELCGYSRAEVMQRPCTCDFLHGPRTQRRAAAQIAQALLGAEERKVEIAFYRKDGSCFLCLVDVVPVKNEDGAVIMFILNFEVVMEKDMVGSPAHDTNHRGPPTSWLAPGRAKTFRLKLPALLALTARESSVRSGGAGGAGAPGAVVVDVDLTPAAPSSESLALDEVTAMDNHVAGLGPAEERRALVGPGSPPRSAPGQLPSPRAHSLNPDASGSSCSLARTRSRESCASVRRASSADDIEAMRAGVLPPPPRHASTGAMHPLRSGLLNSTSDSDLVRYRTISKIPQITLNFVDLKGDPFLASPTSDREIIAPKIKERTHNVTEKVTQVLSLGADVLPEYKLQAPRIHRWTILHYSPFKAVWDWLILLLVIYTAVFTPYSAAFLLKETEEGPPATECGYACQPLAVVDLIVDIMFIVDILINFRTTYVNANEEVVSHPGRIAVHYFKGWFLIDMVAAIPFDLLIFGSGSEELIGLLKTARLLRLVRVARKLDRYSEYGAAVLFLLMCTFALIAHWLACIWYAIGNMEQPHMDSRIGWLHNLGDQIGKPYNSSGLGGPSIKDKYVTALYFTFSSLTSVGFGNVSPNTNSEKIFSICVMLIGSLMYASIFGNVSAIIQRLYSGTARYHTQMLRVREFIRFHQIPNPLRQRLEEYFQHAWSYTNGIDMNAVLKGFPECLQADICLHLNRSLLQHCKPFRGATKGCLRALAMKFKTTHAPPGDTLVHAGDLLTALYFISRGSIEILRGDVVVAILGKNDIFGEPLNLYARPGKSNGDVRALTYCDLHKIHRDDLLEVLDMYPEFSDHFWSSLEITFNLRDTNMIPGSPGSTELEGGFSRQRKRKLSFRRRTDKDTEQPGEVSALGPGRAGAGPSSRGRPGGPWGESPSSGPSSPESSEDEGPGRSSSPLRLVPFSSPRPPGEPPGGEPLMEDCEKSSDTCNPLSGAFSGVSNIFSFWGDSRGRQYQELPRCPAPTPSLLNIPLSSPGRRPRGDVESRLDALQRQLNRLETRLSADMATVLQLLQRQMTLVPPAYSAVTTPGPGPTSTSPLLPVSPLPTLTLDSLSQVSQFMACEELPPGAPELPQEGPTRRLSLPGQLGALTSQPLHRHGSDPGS

## 34 (GGYSRCQLQGFNCVVRSYGLPTIPCCRGLTCRSYFPGSTYGRCQRY) [compound 34]
[1]
  Activity of 5HT3a with peptide (percentage of the reference compound): 97%
  Activity of 5HT3a with peptide, expressed as a percentage of the reference compound: 114%
[2]; peptide at 0.2 μM
  Activity of a3b4 with peptide, expressed as a percentage of the reference compound: 103%
[2]; peptide at 20 μM
  Activity of a3b4 with peptide (percentage of the reference compound): 97%
[3]; peptide at 0.2 μM
  Activity of a4b2 with peptide, expressed as a percentage of the reference compound: 81%
[3]; peptide at 20 μM
  Activity of a4b2 with peptide (percentage of the reference compound): 51%
[4]; peptide at 0.2 μM
  Activity of Cav2.1 with peptide, expressed as a percentage of the reference compound: 86%
[4]; peptide at 20 μM
  Activity of Cav2.1 with peptide (percentage of the reference compound): 111%
[5]; peptide at 0.2 μM
  Activity of Cav2.2 with peptide, expressed as a percentage of the reference compound: 130%
[5]; peptide at 20 μM
  Activity of Cav2.2 with peptide (percentage of the reference compound): 94%
[6]; peptide at 0.2 μM
  Activity of Kv2.1 with peptide, expressed as a percentage of the reference compound: 98%
[6]; peptide at 20 μM
  Activity of Kv2.1 with peptide (percentage of the reference compound): 97%
[7]; peptide at 0.2 μM
  Activity of GABA with peptide, expressed as a percentage of the reference compound: 107%
[7]; peptide at 20 μM
  Activity of GABA with peptide (percentage of the reference compound): 117%
[8]; [19]
  Activity of Nav1.5 with peptide, expressed as a percentage of the reference compound: 111%
  Activity of Nav1.5 with peptide (percentage of the reference compound): 101%
[8]; [20]
  Activity of Nav1.5 with peptide, expressed as a percentage of the reference compound: 113%
  Activity of Nav1.5 with peptide (percentage of the reference compound): 101%
[9]; peptide at 0.2 μM
  Activity of hERG with peptide, expressed as a percentage of the reference compound: 84%
[9]; peptide at 20 μM
  Activity of hERG with peptide (percentage of the reference compound): 66%
[10]; peptide at 0.2 μM
  Activity of Kir2.1 with peptide, expressed as a percentage of the reference compound: 97%
[10]; peptide at 20 μM
  Activity of Kir2.1 with peptide (percentage of the reference compound): 50%
[11]; peptide at 0.2 μM
  Activity of Kv1.1 with peptide, expressed as a percentage of the reference compound: 109%
[11]; peptide at 20 μM
  Activity of Kv1.1 with peptide (percentage of the reference compound): 111%
[12]; peptide at 0.2 μM
  Activity of Kv1.2 with peptide, expressed as a percentage of the reference compound: 96%
[12]; peptide at 20 μM
  Activity of Kv1.2 with peptide (percentage of the reference compound): 51%
[13]; peptide at 0.2 μM
  Activity of Kv1.3 with peptide, expressed as a percentage of the reference compound: 108%
[13]; peptide at 20 μM
  Activity of Kv1.3 with peptide (percentage of the reference compound): 100%
[14]; [21]
  Activity of Nav1.7 with peptide, expressed as a percentage of the reference compound: 102%
  Activity of Nav1.7 with peptide (percentage of the reference compound): 86%
[14]; [22]
  Activity of Nav1.7 with peptide, expressed as a percentage of the reference compound: 104%
  Activity of Nav1.7 with peptide (percentage of the reference compound): 80%
[15]; peptide at 0.2 μM
  Activity of NR2A with peptide, expressed as a percentage of the reference compound: 112%
[15]; peptide at 20 μM
  Activity of NR2A with peptide (percentage of the reference compound): 77%
[16]; peptide at 0.2 μM
  Activity of NR2B with peptide, expressed as a percentage of the reference compound: 127%
[16]; peptide at 20 μM
  Activity of NR2B with peptide (percentage of the reference compound): 66%
[17]; peptide at 0.2 μM
  Activity of TRPA1 with peptide, expressed as a percentage of the reference compound: 91%
[17]; peptide at 20 μM
  Activity of TRPA1 with peptide (percentage of the reference compound): 97%
[18]; peptide at 0.2 μM
  Activity of TRPV1 with peptide, expressed as a percentage of the reference compound: 110%
[18]; peptide at 20 μM
  Activity of TRPV1 with peptide (percentage of the reference compound): 71%
